To fix the notation:
B1: PAIP1 peptide 124-139 (Polyadenylate-binding protein-interacting protein 1), 16-mer library wild type / PABPC1 PABC (PABPC1 PABC domain, residues 544-623) (parent complex)
chain 1: LMSKLSVNAPEFYPSG
chain 2: PLTASMLASAPPQEQKQMLGERLFPLIQAMHPTLAGKITGMLLEIDNSELLHMLESPESLRSKVDEAVAVLQAHQAKEAA
B2: CBL peptide 538-553 (E3 ubiquitin-protein ligase CBL), 16-mer library wild type / YES SH3 (YES1 SH3 domain, residues 90-152) (parent complex)
chain 1: TLRDLPPPPPPDRPYS
chain 2: not shown

Variants of B1 are the subject of one assay. Kind of assay: proteomic peptide phage display deep mutational scan (ProP-PD DMS): M13 P8 16-mer library selected against immobilised GST-tagged bait for four days (rounds), NGS of the eluted pools per day and pseudo-replica; bait immobilised on MaxiSorp plates (10 µg), library pre-cleared on GST, 2 h binding at 4 °C, five washes; one round per day, days 1-4; value from days 2 and 3.
Consider chain 1 LMSKLSVNAPEFYPSN [chain 1 G16N], for which the screen value was 0.000134 average fractional NGS count over selection days 2 and 3 (reads of this peptide / all reads for the bait, averaged over ….
Still for that read-out and setting: next, chain 1 LKSKLSVNAPEFYPSG [chain 1 M2K]: 0.000358 average fractional NGS count over selection days 2 and 3 (reads of this peptide / all reads for the bait, averaged over …; chain 1 LMWKLSVNAPEFYPSG [chain 1 S3W]: 0.00081 average fractional NGS count over selection days 2 and 3 (reads of this peptide / all reads for the bait, averaged over ….

The variants in another assay derive from B2. The description is as above.
In the case of chain 1 R13Q, the screen value is 0.000164 average fractional NGS count over selection days 2 and 3 (reads of this peptide / all reads for the bait, averaged over ….
For the variant chain 1 R13E, the screen value was 0.000127 average fractional NGS count over selection days 2 and 3 (reads of this peptide / all reads for the bait, averaged over ….
Consider chain 1 R13H, for which the screen value is 6.28e-05 average fractional NGS count over selection days 2 and 3 (reads of this peptide / all reads for the bait, averaged over ….
The same measure, in the same setting: next, chain 1 R13M: 0.000309 average fractional NGS count over selection days 2 and 3 (reads of this peptide / all reads for the bait, averaged over …; chain 1 R13G: 3.78e-05 average fractional NGS count over selection days 2 and 3 (reads of this peptide / all reads for the bait, averaged over ….
On the same count and under the same terms, next, chain 1 R13V: 0.000492 average fractional NGS count over selection days 2 and 3 (reads of this peptide / all reads for the bait, averaged over ….
For chain 1 R13Y, the screen value was 0.000779 average fractional NGS count over selection days 2 and 3 (reads of this peptide / all reads for the bait, averaged over ….
As for chain 1 R13N, the screen value was 0.000641 average fractional NGS count over selection days 2 and 3 (reads of this peptide / all reads for the bait, averaged over ….
Same read-out and setting: the result for chain 1 R13A reads 0.00128 average fractional NGS count over selection days 2 and 3 (reads of this peptide / all reads for the bait, averaged over ….
Turning to chain 1 R13W, the screen value was 0.00314 average fractional NGS count over selection days 2 and 3 (reads of this peptide / all reads for the bait, averaged over ….
Still for that read-out and setting: the result for chain 1 R13L reads 0.00161 average fractional NGS count over selection days 2 and 3 (reads of this peptide / all reads for the bait, averaged over ….
Regarding chain 1 L2E, the screen value was 0.00558 average fractional NGS count over selection days 2 and 3 (reads of this peptide / all reads for the bait, averaged over ….
Regarding chain 1 L2P, the screen value is 0.00136 average fractional NGS count over selection days 2 and 3 (reads of this peptide / all reads for the bait, averaged over ….
On the same count and under the same terms, the result for chain 1 L2N reads 0.00027 average fractional NGS count over selection days 2 and 3 (reads of this peptide / all reads for the bait, averaged over ….
In the case of chain 1 L2R, the screen value is 0.000311 average fractional NGS count over selection days 2 and 3 (reads of this peptide / all reads for the bait, averaged over ….
On the same count and under the same terms, the result for chain 1 L2K reads 0.0014 average fractional NGS count over selection days 2 and 3 (reads of this peptide / all reads for the bait, averaged over …; that for chain 1 L2F, 0.00251 average fractional NGS count over selection days 2 and 3 (reads of this peptide / all reads for the bait, averaged over …; that for chain 1 L2D, 0.000976 average fractional NGS count over selection days 2 and 3 (reads of this peptide / all reads for the bait, averaged over ….
Take chain 1 L2V: the screen value was 0.00022 average fractional NGS count over selection days 2 and 3 (reads of this peptide / all reads for the bait, averaged over ….
Still for that read-out and setting: the result for chain 1 L2Q reads 0.00095 average fractional NGS count over selection days 2 and 3 (reads of this peptide / all reads for the bait, averaged over …; that for chain 1 L2T, 0.00177 average fractional NGS count over selection days 2 and 3 (reads of this peptide / all reads for the bait, averaged over ….
As to chain 1 L2I, the screen value is 0.000452 average fractional NGS count over selection days 2 and 3 (reads of this peptide / all reads for the bait, averaged over ….
On the same count and under the same terms, the result for chain 1 L2G reads 0.000674 average fractional NGS count over selection days 2 and 3 (reads of this peptide / all reads for the bait, averaged over …; that for chain 1 L2Y, 0.00467 average fractional NGS count over selection days 2 and 3 (reads of this peptide / all reads for the bait, averaged over ….
Same read-out and setting: next, chain 1 L2W: 0.00229 average fractional NGS count over selection days 2 and 3 (reads of this peptide / all reads for the bait, averaged over ….
Consider chain 1 D4Y, for which the screen value is 0.00195 average fractional NGS count over selection days 2 and 3 (reads of this peptide / all reads for the bait, averaged over ….
Take chain 1 D4I: the screen value was 0.00256 average fractional NGS count over selection days 2 and 3 (reads of this peptide / all reads for the bait, averaged over ….
On to chain 1 D4P, for which the screen value was 0.00043 average fractional NGS count over selection days 2 and 3 (reads of this peptide / all reads for the bait, averaged over ….
With chain 1 D4K, the screen value was 0.000375 average fractional NGS count over selection days 2 and 3 (reads of this peptide / all reads for the bait, averaged over ….
With chain 1 D4A, the screen value is 0.000274 average fractional NGS count over selection days 2 and 3 (reads of this peptide / all reads for the bait, averaged over ….
Regarding chain 1 D4L, the screen value was 0.000198 average fractional NGS count over selection days 2 and 3 (reads of this peptide / all reads for the bait, averaged over ….
In the case of chain 1 D4M, the screen value was 0.0013 average fractional NGS count over selection days 2 and 3 (reads of this peptide / all reads for the bait, averaged over ….
Consider chain 1 D4N, for which the screen value is 0.00132 average fractional NGS count over selection days 2 and 3 (reads of this peptide / all reads for the bait, averaged over ….
Regarding chain 1 D4V, the screen value was 0.00269 average fractional NGS count over selection days 2 and 3 (reads of this peptide / all reads for the bait, averaged over ….
On the same count and under the same terms, next, chain 1 P7N: 0.000153 average fractional NGS count over selection days 2 and 3 (reads of this peptide / all reads for the bait, averaged over ….
Still for that read-out and setting: next, chain 1 P7L: 0.000549 average fractional NGS count over selection days 2 and 3 (reads of this peptide / all reads for the bait, averaged over ….
For chain 1 P7V, the screen value was 0.00339 average fractional NGS count over selection days 2 and 3 (reads of this peptide / all reads for the bait, averaged over ….
Regarding chain 1 P7I, the screen value is 0.00214 average fractional NGS count over selection days 2 and 3 (reads of this peptide / all reads for the bait, averaged over ….
Regarding chain 1 P7Y, the screen value is 0.000234 average fractional NGS count over selection days 2 and 3 (reads of this peptide / all reads for the bait, averaged over ….
Still for that read-out and setting: the result for chain 1 P7H reads 7.35e-05 average fractional NGS count over selection days 2 and 3 (reads of this peptide / all reads for the bait, averaged over …; that for chain 1 P7F, 0.000149 average fractional NGS count over selection days 2 and 3 (reads of this peptide / all reads for the bait, averaged over ….
Take chain 1 P7Q: the screen value was 0.000151 average fractional NGS count over selection days 2 and 3 (reads of this peptide / all reads for the bait, averaged over ….
Same read-out and setting: next, chain 1 P7G: 0.000231 average fractional NGS count over selection days 2 and 3 (reads of this peptide / all reads for the bait, averaged over …; chain 1 P7A: 0.00162 average fractional NGS count over selection days 2 and 3 (reads of this peptide / all reads for the bait, averaged over ….
In the case of chain 1 P7K, the screen value is 0.000378 average fractional NGS count over selection days 2 and 3 (reads of this peptide / all reads for the bait, averaged over ….
Consider chain 1 P7S, for which the screen value was 0.00158 average fractional NGS count over selection days 2 and 3 (reads of this peptide / all reads for the bait, averaged over ….
For chain 1 P7E, the screen value was 0.00022 average fractional NGS count over selection days 2 and 3 (reads of this peptide / all reads for the bait, averaged over ….
As to chain 1 P8L, the screen value was 0.000561 average fractional NGS count over selection days 2 and 3 (reads of this peptide / all reads for the bait, averaged over ….
The same measure, in the same setting: next, chain 1 P8I: 0.000407 average fractional NGS count over selection days 2 and 3 (reads of this peptide / all reads for the bait, averaged over …; chain 1 P8M: 0.000558 average fractional NGS count over selection days 2 and 3 (reads of this peptide / all reads for the bait, averaged over ….
As to chain 1 P8V, the screen value is 0.0024 average fractional NGS count over selection days 2 and 3 (reads of this peptide / all reads for the bait, averaged over ….
On the same count and under the same terms, the result for chain 1 P8E reads 0.0001 average fractional NGS count over selection days 2 and 3 (reads of this peptide / all reads for the bait, averaged over …; that for chain 1 P8A, 9.08e-05 average fractional NGS count over selection days 2 and 3 (reads of this peptide / all reads for the bait, averaged over ….
Still for that read-out and setting: the result for chain 1 P8T reads 0.000116 average fractional NGS count over selection days 2 and 3 (reads of this peptide / all reads for the bait, averaged over …; that for chain 1 P8F, 5.53e-05 average fractional NGS count over selection days 2 and 3 (reads of this peptide / all reads for the bait, averaged over …; that for chain 1 P8Y, 0.00011 average fractional NGS count over selection days 2 and 3 (reads of this peptide / all reads for the bait, averaged over ….
The same measure, in the same setting: the result for chain 1 P10R reads 0.000614 average fractional NGS count over selection days 2 and 3 (reads of this peptide / all reads for the bait, averaged over …; that for chain 1 P10Q, 0.000423 average fractional NGS count over selection days 2 and 3 (reads of this peptide / all reads for the bait, averaged over ….
For the variant chain 1 P10Y, the screen value is 0.00108 average fractional NGS count over selection days 2 and 3 (reads of this peptide / all reads for the bait, averaged over ….
The same measure, in the same setting: the result for chain 1 P10V reads 0.00306 average fractional NGS count over selection days 2 and 3 (reads of this peptide / all reads for the bait, averaged over …; that for chain 1 P10H, 0.00108 average fractional NGS count over selection days 2 and 3 (reads of this peptide / all reads for the bait, averaged over …; that for chain 1 P10A, 0.000136 average fractional NGS count over selection days 2 and 3 (reads of this peptide / all reads for the bait, averaged over ….
Consider chain 1 P10E, for which the screen value is 0.00012 average fractional NGS count over selection days 2 and 3 (reads of this peptide / all reads for the bait, averaged over ….
Still for that read-out and setting: the result for chain 1 P10L reads 0.000964 average fractional NGS count over selection days 2 and 3 (reads of this peptide / all reads for the bait, averaged over ….
chain 1 P10T: the screen value was 0.00196 average fractional NGS count over selection days 2 and 3 (reads of this peptide / all reads for the bait, averaged over ….
On the same count and under the same terms, the result for chain 1 D12H reads 0.00265 average fractional NGS count over selection days 2 and 3 (reads of this peptide / all reads for the bait, averaged over …; that for chain 1 D12M, 0.00124 average fractional NGS count over selection days 2 and 3 (reads of this peptide / all reads for the bait, averaged over …; that for chain 1 D12L, 0.00406 average fractional NGS count over selection days 2 and 3 (reads of this peptide / all reads for the bait, averaged over ….
Same read-out and setting: the result for chain 1 D12N reads 0.000102 average fractional NGS count over selection days 2 and 3 (reads of this peptide / all reads for the bait, averaged over …; that for chain 1 D12K, 0.00012 average fractional NGS count over selection days 2 and 3 (reads of this peptide / all reads for the bait, averaged over ….
Regarding chain 1 D12S, the screen value was 0.000329 average fractional NGS count over selection days 2 and 3 (reads of this peptide / all reads for the bait, averaged over ….
